B1: peptide 12: Ac-Arg-Arg-Phe-Trp-(D-Cys)-Cys-Thr-Arg-Tle-OH (peptide)
peptide: Ac-RRFW[dC]CTR[Tle]-OH
modifications: cysteine pairing not given here
notes: Synthetic peptide; also called Compd 12; Compound 12
B2: peptide 3: Ac-Arg-Arg-Phe-Trp-Gln-Cys-Thr-Arg-Cha-OH (peptide)
peptide: Ac-RRFWQCTR[Cha]-OH
SMILES: CC(=O)N[C@@H](CCCNC(=N)N)C(=O)N[C@@H](CCCNC(=N)N)C(=O)N[C@@H](Cc1ccccc1)C(=O)N[C@@H](Cc1c[nH]c2ccccc12)C(=O)N[C@@H](CCC(N)=O)C(=O)N[C@@H](CS)C(=O)N[C@H](C(=O)N[C@@H](CCCNC(=N)N)C(=O)N[C@@H](CC1CCCCC1)C(=O)O)[C@@H](C)O
notes: Synthetic peptide; also called Compd 3; Compound 3
B3: peptide 7: Ac-Arg-Arg-Phe-Trp-Gln-Cys-Thr-Leu-Tle-OH (peptide)
peptide: Ac-RRFWQCTL[Tle]-OH
modifications: not fully specified; printed as Ac-Arg-Arg-Phe-Trp-Gln-Cys-Thr-Leu-Tle-OH
notes: Synthetic peptide; also called Compd 7; Compound 7
B4: peptide 13: Ac-Arg-Arg-Phe-Trp-Cys-Cys-Thr-Arg-Tle-OH (peptide)
peptide: Ac-RRFWCCTR[Tle]-OH
modifications: cysteine pairing not given here
notes: Synthetic peptide; also called Compd 13; Compound 13
B5: peptide 11: Ac-Arg-Arg-Phe-Trp-(D-Pro)-Cys-Thr-Arg-Tle-OH (peptide)
peptide: Ac-RRFW[dP]CTR[Tle]-OH
SMILES: CC(=O)N[C@@H](CCCNC(=N)N)C(=O)N[C@@H](CCCNC(=N)N)C(=O)N[C@@H](Cc1ccccc1)C(=O)N[C@@H](Cc1c[nH]c2ccccc12)C(=O)N1CCC[C@@H]1C(=O)N[C@@H](CS)C(=O)N[C@H](C(=O)N[C@@H](CCCNC(=N)N)C(=O)N[C@H](C(=O)O)C(C)(C)C)[C@@H](C)O
notes: Synthetic peptide; also called Compd 11; Compound 11
B6: peptide 2: Ac-Arg-Arg-Phe-Trp-Gln-Cys-Thr-Arg-Ile-OH (peptide)
peptide: Ac-RRFWQCTRI-OH
notes: Synthetic peptide; also called Compd 2; Compound 2
B7: peptide 14: Ac-Cys-Arg-Arg-Arg-Phe-(1-Nal)-Gln-Cys-Thr-Arg-Tle-OH (peptide)
peptide: Ac-CRRRF[1Nal]QCTR[Tle]-OH
modifications: cysteine pairing not given here
notes: Synthetic peptide; assayed with DTT (reduced, linear); also called Compd 14; Compound 14
B8: peptide 15: Ac-Cys-Arg-Arg-Arg-Phe-(2-Nal)-Gln-Cys-Thr-Arg-Tle-OH (peptide)
peptide: Ac-CRRRF[2Nal]QCTR[Tle]-OH
modifications: cysteine pairing not given here
notes: Synthetic peptide; assayed with DTT (reduced, linear); also called Compd 15; Compound 15
B9: peptide 6: FITC-Cys-Arg-Arg-Arg-Phe-Trp-Gln-Cys-Thr-Arg-Tle-OH (peptide)
peptide: {FITC′}-CRRRFWQCTR[Tle]-OH
modifications: not fully specified; printed as FITC-Cys-Arg-Arg-Arg-Phe-Trp-Gln-Cys-Thr-Arg-Tle-OH; cysteine pairing not given here
notes: Synthetic labeled peptide; assayed with 2 mM TCEP (reduced, linear); also called Compd 6; Compound 6

Primed or numbered codes have the meaning given here. [ ]: non-standard residue; d: D form. 1Nal = N[C@@H](Cc1cccc2ccccc12)C(=O)O; 2Nal = N[C@@H](Cc1ccc2ccccc2c1)C(=O)O; FITC′ = fluorescein isothiocyanate; Cha = N[C@@H](CC1CCCCC1)C(=O)O; Tle = CC(C)(C)[C@H](N)C(=O)O

Nine molecules from US20210038737A1 (OHIO STATE INNOVATION FOUNDATION, published 2021) can be followed below.

One assay concerns the target T1, CAL PDZ domain (CALP5-His) (UniProt Q9HD26 288-371). Briefly: FP competition, condition A: probe peptide 26 (50 nM) with 100 nM CALP5-His; competitor titrated.
One may read the IC50 as the concentration at which inhibition is half-maximal. A higher IC50 goes with a need for much substance. B1 came in with an IC50 of 10.3 µM.

As to B2, the IC50 worked out at 7.88 µM.

B3 came in with a 50% inhibitory concentration (IC50) of 2.02 µM.

In turn, B4 displayed a concentration for half-maximal inhibition (IC50) of 8.01 µM.

B5 had an IC50 of 7.39 µM.

The molecule B6 displayed an IC50 of 3.69 µM.

For a further assay, the target named is T1, CAL PDZ domain (CALP5-His). Briefly: FP competition, condition B: probe FAM-…-OH (100 nM) with 500 nM CALP5-His; competitor titrated. As to the method:
Serial dilutions of each competitor peptide were prepared in PBS and the incubation solution was added to each. The combined solutions were gently mixed for 1 h at RT after which 20 uL sample was pipetted into 384-well black-on-black microplates and fluorescence polarization was measured using a TECAN Infinite M1000 plate reader. Data was processed to determine IC₅₀ using GraphPad PRISM ver. 6.0.
As for B7, the IC50 came to 1.77 µM.

B8 displayed an IC50 of 1.49 µM.

For another assay, the target named is T1, CAL PDZ domain (CALP5-His). Briefly: direct FP, condition C: 50 nM labeled peptide, CALP5-His titrated. As to the method:
Condition C (denoted with superscript ^c): 50 nM labeled peptide was incubated with 2 mM TCEP in PBS at pH 7.4 containing 0.01% Triton-X100. CALP5-His was serially diluted in PBS containing 0.01% Triton-X100 to which was then added the peptide and TCEP solution. This solution was mixed for 1 h at RT then 20 uL was pipetted into 384-well microplates and fluorescence polarization was measured using a TECAN Infinite M1000 plate reader. KD values were calculated using KaleidaGraph v. 3.6 using the equation: […]
As a reminder, the Kd is the concentration at which binding is half-saturated. The molecule B9 came in with a dissociation constant Kd of 0.996 µM.
